In the DeepSol protein solubility set:

Assay: soluble on expression in E. coli; label from the status in PepcDB or PDB records

Sequence | soluble on expression in E. coli
MNPTFLEFIGANQRSSCGYCKNDRGERTPARSAKSGAWAHSMTVNDYSGLLDVGWRRSGRYLYKPDNRVTCCPQYTIRLDVTKFKMSRSQKRAMRQMNEFLATGKRPVCGIKEEDAPVEMNLKGSGSQSEQSKKNLKSHEVSTKKMKDADRPVLTKKEIRNKKFEEKCRQKNLDPDVVRTERRQKDAARQRTIQSYIDEARPDWKHKLEVKLVSLGGDEFGTRDNESFELYKNYQHTIHKDEDCRLAGFRRFLCDSPLKKEQRGGIELGSFHLWFLLDDKLIAVCVVDILPKCFSAKYMYYNPEYSFLSLGTYTALREIEQTQRLHAIYSNLKYYYMGYYIHSCPKMRYKAKFRPSDLLCDQSFRWVDFNSCRDLLDGSTCSNGFSEFCPGAPRPASPVVDTLLVFSNGSITTLSDALTEIPEAAENEQFLANVRDLAHLVGPDLSRVVYYFNELNS | not soluble
MGSDKIHHHHHHMADETISLDYYAPRFRVEIDGETIPQDGIVSVEVDETLDAPAMVSLAFNETLDPRSQTFAWLDNPKLVPGAEVKVFLGYTGRAVPAPKPLFEGRLHTLTPAFQNSGVPSLMVQGYDHSHGLQKVKSHFSRTNARASDAASEIARLNGLDASGVEATATVHPSIRQGEDEVDLEFLRRLARDLGFEVFVRGKALMFRTPADEETELLTFQWGRNLVSFTPRLSTSAQVSEVRVRGWNPATKERIEGKATVADLKGLAGGVSGAEQAGSGGEPVVRSIEDRPVFSREEADALARAELNRLNDGFITGTGETIGMPELRPGITVAIQGIGTRFSGRYYVKGARHSLGDSGYRTTFEVRRNALGSL | not soluble
MDAWKEITKTTENDGVSTCSLSSIAFDPYSELVWTGHKNGQIKSSFGPSLTSYTQFIGHEGPVHQVLPQERGVFSLSSKSLRLSNRKGTIRWRYHSVPCVQRSMIILYSCFLCSKHAVLISRDSDCIDYRAMFYQSRNNPEVVIGGYHQKLTVVNAERGISIHKDKNVSDIFIMRRNRLLCCGSTNGEIILRDPNSFQPVNKVVAHTGTISDIDTSGNLLLSCGYSLRHGTYMLDPFVKVWDLRNLSSLVPIPFPAGPTIIRMHPKLSTTAVVCSCSGQFHIVDTGNPLDAKLMQIPLTSYLTGMDIASTGDAMVFTDVEDNIHLWSPLENPSFSDLKLPIQLPNTSTETVQLENNDPLNSIGLPYYKDELLSSWSKYLIFDVGKPILDSNLLIAKQISENSHPVPQEIKSFHRNQIIEVPWLNRKLISEGATPKFHSERQKDIMSGNDIEGSASYFEEIEDTISGPDSIPKFYQRPVIKYSKFGIEDFDFGFYNKTKYAGLETDITNSYCNSVLQLLSYVPSFSKAAISHSLGPCDLMECLLCELGFLFAMLKESTGRNCQATNFLRAFSNSSFAQSLGIVFDDYSDGTFPDSFVIQKFTKFMLTEISRIADYEDKKDGTSFPVSFLLKSFCIPEMQTYRCGICGITSQKIKSSLYIIDLHYPSQQLESILSFEWLFKMSLDRRVDLPPGWCEYCLAHQPFLLRSFIRSLPDCLFINTQVKHHEHWKLWARKNWLPKKLHLRRVNDTMQCVSQKISNLDKDQQSLSVYVLRGIIYEIRQNGEEPHFVSTIRVSDNTSSDNPDDNRWYIFNDFLVKEVTEEEALTVHGPWKIPIIVYYEKLDTKIPQWDEVSDYTLLYQPYSLNKNPPINKIQPLTTDEMLYPKMLVGIDSEFVALQQEETEVRSDGTKSTIKPSKLSLARVSVLRGEGPNKGLPFIDDYVATDDKVTDYLTEYSGIHPGDLDPDRSPYNVVPLKVAYKKLRLLVNAGCIFVGHGLQKDFRIINLLVPPEQVVDTVDLFFLSSRQRKLSLKFLAWYLLDEEIQLTEHDSIEDALTALKLYDCYDKLKSQGKLEETLDNIYEVGRRFKFRPPSVASMSLEDRNSYGDESVISNQTN | soluble
MVEVKNLVAITGPKMPYELARLLKISHARATRLAAAANAQNPTPSRARTSDAQAQQPAAASPKPPAEPVAAEPKKKRAKKATPVEAGLPPLTGKITGGHACAFDVVGESYYQPALRRLRNGRHMATDNDFVADIVAEPDNPHDPNACAVYIEGFKVGYLPRDAAADFQQQVADMGVTGTWRLQTKAKLSGGWGDRPMVGVLLSLPKSLEHHHHHH | soluble
MKYTEIMVRYGELSTKGKNRKTFIMQLAQNVKRALADFPALKIHADRDRMHILLNGEDSEEVIPKLSKVFGIQNFSPSIRIEKEMPAIRAMVQEVVREVYTPGKTFKITAKRSDHSFELDSNGLNQELGGAVIEAIPEIQVQMKKPDINLRIEIRKDAAYLSYETIRGAGGLPVGTSGRGMLMLSGGIDSPVAGYLAMKRGVEVEAVHFASPPYTSEQALQKAKDLAEKLVPYVGTIQFIEVPFTEIQEEIKRVVPQGYLMTITRRLMLRLTDAIREMRKGLVIINGESLAQVASQTLQSMVAINEVTSTPIIRPVVSMDKTEIIEIAEKIDTFELAIQPFEDCCTIFAPPQPKTRPRLDKAQEYEARLDLEGLMARALEGLKITEISAETAKDKQEDEFADFL | not soluble
MGSDKIHHHHHHMTQTPVTLDQKVGEKRDRMRGVFSTQEIRKVGTGTTTRKTIQKSFWYVDEGDDGVIEVQPLNSNYVPSGPKRKIDRDELLDKFAPEPEFYVQTVFPKMRELNKTIARADRHRQKGETFSAEFEYNNALKVDEENVRANFGIGLTYLERGETDKADNIFERLVKLDAAFEEEHKHLFNEFGINLRKSKMYDQAVEYYGRALELSQGDENLHLNVARAYLEKQDFPHCLEHVLRALMINPAHEAGLKFLAWMEAKKLVPEDQRAAVAEAVARARSTGGTPASAANEG | not soluble
EVPTIDGRAKIRIEAGTQPGKMLRLRNKGLPSVNGYGMGDQLVNVNVYIPESIDAKDEQAIAAMENSDSFKPTDAARKDIDKKYREMLD | not soluble
MEEAVSPLGLDVLEVHFARGELLVRLERKDERPITVADLEEASRHIEAALDREDPIPGSYRLLVESPGPKRPLFTRRHFERFQGLKAKVPGPEGFTGRILRVEGEEVVFQVGDEERRLRIGTFRANLAEWPEEPR | soluble
MFMIEVEIFPHRYLKASTTEKFLNKIYDLKTVERVVIHGQPLPKVITYGPARGLPVNHTERKIIHVKGVPVELTVMAGRFWITLSDDSELDKLDEICKEMFPFGYNLRVGKFLKDRPTVTDYIKYGEDGVFLINEMDRRLIGMVDPRSRMANSVTVVEKEEKEELEHHHHHH | soluble
MGSDKIHHHHHHMKITFGQQTTKVKQLADKISFDISMGVYKSGDSLPSINQLSQAYEVSRDTVFKAFLDLKERGIIDSTPGKGYYVVGRLKNVLLLLDEYSPFKYALYNSFVKRLSIRYKVDLLFHQYNERLFNTIIRESLGRYNKYIVMNFDNEKLSPNLYKINPSKLLLLDFGKFEKEGFSYVCQDFDQGFYNALFQLADRLRKYQKLVFVLVDDSMHPRSSRDFFERFCADQHLGCEVVSDIEGLQVRRGEVYIAIRQIDVVSIIKKSRVEGLQCGVDFGLIGYNDTPAYEVIDQGITALSVDWEKMGDKAAEFVLQGKTIQDYLPTEVRLRASL | not soluble
MGSDKIHHHHHHMSDAAIAQDLAALAAQLQTLAGLQGKRDIQAAAASLPHRPFPKLGLAAALGDDAALLPATANRLLFACEGIHPDLVAEDPWFAGWSGVLVNLSDIAAMGGRPIAVVNSLWSRDRQHADQVFAGLQFAAEKFGIPIVGGHSNLQSPYSALSVAVLGQVGPHVLSARSAQAGDRCYLLINRDGQFYRHYPFWDAATGTAPEQLRRHWELMAQLADAGLVSAAKDVSMGGLIGTAVMFAETSGAGLDLHLDRLSYPAGVSRDRWLTCFPSFGFLLAVPEACCDRFLQRVATEPDLTCDHLGSFTNTGQVRLCDRQAQVCFWDCQEQSLMGFSALTDPESPH | not soluble
MSLKQYETIILHRHVRPDPDAYGSQMGLAEIIRASFPEKKVYSVGNDEKSLQFLGIVDEITDEIYKDALVIVCDTANQERISDGRFNLGKALIKIDHHPNDDAYGDLLWVDTTASSCSEMIVAFWEMFSDELILNETAARLLYAGIVGDTGRFLYPSTTEETLRLSAHLVTFPFDRPALYRELYELPKNTVKLSGYILQNFVMDENGAATVYLSDTLLNEFEVDPRDASALVSCIENVKGIKAWIMFIQEGPVFRARLRSKGPVINELAKEYGGGGHPLASGATLHNEEEIKEMTAKLQRIEGHHHHHH | not soluble
MAYFTAKRASSMGASTVPSGNDHLLEALTLCDCILSRYKRCGVQLNDAEAAAFANLQQRISSISGHAADAACPAGATRKQSQELGLHEYAQLAQRCLIFQNPLAQIVATINEEFSKLVSCSVRTHYANTNDAVLCDPVHDTVATIDTSTPIGRCAKTKTTVTISDTVYIPLCYNSHVVGCLEVESTAIDTSTPFFGYLLQVAALTLQNATSIDTLRWETRKAEAMVGMATRLARDTLEESVLVQSIINTAKTLTESDRCSIFLVKADGSLEAHFEDGNVVVLPAGTGIAGHVAESGAVVNIPNAYEDDRFHRSVDKVTGYHTRTILCLPIAFEGTIVAVAQLINKLDMVTQSGQRLPRVFGRRDEELFETFSMFAAASLRNCRINETLLKEKKKSDAILDVVALLSNTDIRDVDSIVRHVLHGAKKLLNADRSSMFLLDKERNELYSKMADSANEIRFPCGQGIAGTVAESGVGENIMDAYADSRFNSAVDRQLGYRTQSILCEPITLNGEVLAVVQLVNKLGDDGSVTCFTPTDQETFKVFSLFAGISINNSHLLEFAVNAGREAMTLNLQRNSITAQRAPKSVKVIAVTPEEREAVMSIDFGGAYDFTSPGFNLFEVREKYSEPMDAAAGVVYNLLWNSGLPEKFGCREQTLLNFILQCRRRYRRVPYHNFYHVVDVCQTLHTYLYTGKASELLTELECYVLLVTALVHDLDHMGVNNSFYLKTDSPLGILSSASGNNSVLEVHHCSLAIEILSDPAADVFEGLSGQDVAYAYRALIDCVLATDMARHGDLSRVFDDMAKAGYDSNDQESRRLVMETLIKAGDVSNVTKPFETSRMWAMAVTEEFYRQGDMEKEKGVEVLPMFDRSKNNELARGQIGFIDFVAGKFFRDIVGNLFHGMQWCVDTVNSNRAKWQEILDGRRDSIRPSIV | not soluble
MGDGKPHTAQQTIPYLQMYPDGICRVTEKKYSKSLVFEDINYQLAQADDKTAIFENWCDFLNYFDASVSVQLSFINQGARQEKAQAAIEIPAQDDAFNSIRKEYADMLKNQLEKGNNGLEKCKYITFSIEADNLAAAKARLSRIETDVLNNFKVLGVTARPMNGQERLNVLHGIFHPAGEPFRFSWDWLVPSGLTTKDFIAPSSFHFGDGRTFRMGKKLGAVSFLEILAPELNDRMLSDILDLENGIIVNLHIRSIDQSEAIKTIKRKITDLDKMKIEEQKKAVRSGYDMDIIPSDLATFGSEAKNLLQDLQSRNERMFLLTFLVANMADTKRKLENDIFATAGFAQKNNCALTRLDYLQEAGFMSSIPLGENLIPIQRGLTTSSTAIFIPFITQELFQRGAALYYGLNALSNNMILCDRKQLKNPNGLILGTPGSGKSFAAKREITNIFLITDDDIIICDPEAEYYPLVERLHGQVVHISPTSRHYVNPMDINLNYSEDDNPLALKSDFILSLCELVIGGKEGLQPVEKTVIDRAVRNVYRPFLADPDPAKMPILGDLYNELLKQPEPEAARIAAALELYVSGSLNVFNHRTNVELSNRLVCFDIKQLGKQLKKLGMLIVQDQVWNRVTLNRAEKKATRYYMDEFHLLLKEEQTAAYSVEIWKRFRKWGGIPTAITQNVKDLLSSREVENIFENSDFVLMLNQAQGDRAILAKQLNISPQQMKYVTHTEAGEGLIFYGNVVLPFIDRFPTNTELYRLLTTKPEEVSKPLEHHHHHH | soluble
GPGSMDKTKDSLIAVYDLGGGTFDISVLEIAGGVFEVKATNGDTHLGGEDFDLALSDYILEEFRKTSGIDLSKERMALQRVREAAEKAKCELSSAMETEVNLPFITANADGAQHIQMHISRSKFEGITQRLIERSIAPCKQCMKDAGVELKEINDVVLVGGMTRMPKVVEEVKKFFQKDPFRGVNPDEAVALGAATLGGVLRGKASDLILVDVTPLSLGTSVVGDVFTRMIPKNTTIPCMRSHIFTTVDDGQTAIKFKVFQGEREIASENQIRGEFDLSGIPPAPRGVPQIEVTFDIDANGICHVTAKDKATGKTQNITITANGGLSKEQIEQMIRDSEQHAEADRVKRELVEVRNNAETQLTTAERQLGEWKYVSDAEKENVKTLVAELRKAMENPNVAKDDLAAATDKLQKAVMECGRTEYQQAAAANSGQC | not soluble
